Laboratory results taken from patent US20230312744A1, “Modulatory Substance of Tumor Immune Microenvironment, and Preventive, Diagnostic and/or Therapeutic Utilization of the Same” (The University Of Tokyo, priority 2020, published 2023).

Tested on: SL4 tumors
Assay: Proliferation assay of subcutaneously transplanted SL4 tumor in C57BL/6 mice (tumor volume)
Assay type: in vivo
Conditions: 200 μg/mouse intraperitoneally every other day from Day 1 after transplantation, vs control IgG, FIG. 13(a)
Experimental: In FIG. 13(a), SL4 cells (1×10^5 cells) were subcutaneously transplanted into C57BL/6 mice. The monoclonal antibody (55F3) (n=5) reacting against TCTP or control IgG (n=6) was intraperitoneally administered to the mice, every other day from one day after the transplantation (200 μg/mouse). The tumor volume was measured over time. In FIG. 13(b), on Day 13 after the transplantation, single cell suspensions were prepared from tumors, and were then subjected to a flow cytometry analysis (n=5). […] In FIG. 13(c), SL4 cells (1×10^5 cells) were subcutaneously transplanted into C57BL/6 mice (n=6). After the transplantation, DHA (50 mg/kg) was intraperitoneally […] into the mice every day. The tumor volume was measured over time. In FIG. 13(d), SL4 cells (1×10^5 cells) were subcutaneously transplanted into C57BL/6 mice (n=6). […] The tumor volume was measured over time. […] In FIG. 13(f), the amount of TCTP in sera derived from healthy subjects (people who are not affected with cancer) (n=5) and colorectal cancer patients (n=14) was quantified by immunoblotting. […] In FIG. 13 (g), (right view) the relative staining intensity by the anti-TCTP antibody was semi-quantified, and the staining intensity of the colorectal cancer tissues was compared with the staining intensity of the normal large intestinal tissues (n=45). […]

B1: 55F3: Mouse monoclonal antibody against human TCTP peptide SEQ ID NO: 25; CDRs SEQ ID NO: 1-6, VH SEQ ID NO: 19, VL SEQ ID NO: 22 (antibody, listed as Mus musculus)
VH: MRVLILLWLFTAFPGILSDVQLQESGPGLVKPSQSLSLTCTATGYSIASDYAWNWIRQFPGNKLEWMGYINYSGSTGYNPSLKSRISITRDTSKNQFFLQLNSVTTEDTATYYCARFEAGYWGQGTTLTVSSAKTTPPSVYPLAPGSAAQTNSMVTLGCLVKGYFPEPVT
VL: MDMRTPAQFLGILLLWFPGIKCDIKMTQSPSSMSASLGERVTITCKASQDINRYLSWFQQKPGKSPKTLIYRANRLVDGVPSRFSGSGSGQDYSLTISSLEYGDMGIYYCLQYNEFPLTFGAGTKLELKRADAAPTVSIFPPSSEQLTSGGASVVCFLN
  proliferation speed of SL4 tumor cells (tumor volume): decreased
